Source: US20210187069A1
Each block holds one binder with its values, some of them ahead of it.

Target: T1, wildtype SARM1 (endogenous, in wildtype mouse dorsal root ganglion neurons) (mouse) (UniProt Q6PDS3)
T1 sequence (looked up): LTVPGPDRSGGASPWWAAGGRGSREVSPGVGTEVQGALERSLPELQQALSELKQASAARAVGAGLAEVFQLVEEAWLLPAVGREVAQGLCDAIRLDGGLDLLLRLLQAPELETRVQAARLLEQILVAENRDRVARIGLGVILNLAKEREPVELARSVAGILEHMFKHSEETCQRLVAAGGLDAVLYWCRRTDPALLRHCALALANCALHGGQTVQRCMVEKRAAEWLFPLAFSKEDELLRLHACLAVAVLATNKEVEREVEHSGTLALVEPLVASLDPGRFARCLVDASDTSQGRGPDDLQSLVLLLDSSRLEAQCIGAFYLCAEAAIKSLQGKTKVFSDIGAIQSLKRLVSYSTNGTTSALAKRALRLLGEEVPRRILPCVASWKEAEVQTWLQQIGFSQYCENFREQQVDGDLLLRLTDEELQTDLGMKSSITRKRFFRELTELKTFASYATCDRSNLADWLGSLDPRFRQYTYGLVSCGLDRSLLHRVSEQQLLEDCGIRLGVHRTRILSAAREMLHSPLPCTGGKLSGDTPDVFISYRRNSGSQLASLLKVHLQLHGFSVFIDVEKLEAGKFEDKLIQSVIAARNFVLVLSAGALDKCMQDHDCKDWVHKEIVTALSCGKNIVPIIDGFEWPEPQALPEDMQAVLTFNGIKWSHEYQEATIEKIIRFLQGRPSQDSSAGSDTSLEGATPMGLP
Test: cell-based or functional assay

B4: SARM1-K193R/E642A (enzyme, not shown: large carriers)
chain: LAVPGPDGGGGTGPWWAAGGRGPREVSPGAGTEVQDALERALPELQQALSALKQAGGARAVGAGLAEVFQLVEEAWLLPAVGREVAQGLCDAIRLDGGLDLLLRLLQAPELETRVQAARLLEQILVAENRDRVARIGLGVILNLAKEREPVELARSVAGILEHMFRHSEETCQRLVAAGGLDAVLYWCRRTDPALLRHCALALGNCALHGGQAVQRRMVEKRAAEWLFPLAFSKEDELLRLHACLAVAVLATNKEVEREVERSGTLALVEPLVASLDPGRFARCLVDASDTSQGRGPDDLQRLVPLLDSNRLEAQCIGAFYLCAEAAIKSLQGKTKVFSDIGAIQSLKRLVSYSTNGTKSALAKRALRLLGEEVPRPILPSVPSWKEAEVQTWLQQIGFSKYCESFREQQVDGDLLLRLTEEELQTDLGMKSGITRKRFFRELTELKTFANYSTCDRSNLADWLGSLDPRFRQYTYGLVSCGLDRSLLHRVSEQQLLEDCGIHLGVHRARILTAAREMLHSPLPCTGGKPSGDTPDVFISYRRNSGSQLASLLKVHLQLHGFSVFIDVEKLEAGKFEDKLIQSVMGARNFVLVLSPGALDKCMQDHDCKDWVHKAIVTALSCGKNIVPIIDGFEWPEPQVLPEDMQAVLTFNGIKWSHEYQEATIEKIIRFLQGRSSRDSSAGSDTSLEGAAPMGPTATT
axon degeneration after 40 nM vincristine, wildtype DRG neurons: > 120 h

B5: SARM1 D627K (enzyme, not shown: large carriers)
chain: LAVPGPDGGGGTGPWWAAGGRGPREVSPGAGTEVQDALERALPELQQALSALKQAGGARAVGAGLAEVFQLVEEAWLLPAVGREVAQGLCDAIRLDGGLDLLLRLLQAPELETRVQAARLLEQILVAENRDRVARIGLGVILNLAKEREPVELARSVAGILEHMFKHSEETCQRLVAAGGLDAVLYWCRRTDPALLRHCALALGNCALHGGQAVQRRMVEKRAAEWLFPLAFSKEDELLRLHACLAVAVLATNKEVEREVERSGTLALVEPLVASLDPGRFARCLVDASDTSQGRGPDDLQRLVPLLDSNRLEAQCIGAFYLCAEAAIKSLQGKTKVFSDIGAIQSLKRLVSYSTNGTKSALAKRALRLLGEEVPRPILPSVPSWKEAEVQTWLQQIGFSKYCESFREQQVDGDLLLRLTEEELQTDLGMKSGITRKRFFRELTELKTFANYSTCDRSNLADWLGSLDPRFRQYTYGLVSCGLDRSLLHRVSEQQLLEDCGIHLGVHRARILTAAREMLHSPLPCTGGKPSGDTPDVFISYRRNSGSQLASLLKVHLQLHGFSVFIDVEKLEAGKFEDKLIQSVMGARNFVLVLSPGALKKCMQDHDCKDWVHKEIVTALSCGKNIVPIIDGFEWPEPQVLPEDMQAVLTFNGIKWSHEYQEATIEKIIRFLQGRSSRDSSAGSDTSLEGAAPMGPTATT
axon degeneration after axotomy: 24 h

B6: SARM1-H685A/E642A (enzyme, not shown: large carriers)
chain: LAVPGPDGGGGTGPWWAAGGRGPREVSPGAGTEVQDALERALPELQQALSALKQAGGARAVGAGLAEVFQLVEEAWLLPAVGREVAQGLCDAIRLDGGLDLLLRLLQAPELETRVQAARLLEQILVAENRDRVARIGLGVILNLAKEREPVELARSVAGILEHMFKHSEETCQRLVAAGGLDAVLYWCRRTDPALLRHCALALGNCALHGGQAVQRRMVEKRAAEWLFPLAFSKEDELLRLHACLAVAVLATNKEVEREVERSGTLALVEPLVASLDPGRFARCLVDASDTSQGRGPDDLQRLVPLLDSNRLEAQCIGAFYLCAEAAIKSLQGKTKVFSDIGAIQSLKRLVSYSTNGTKSALAKRALRLLGEEVPRPILPSVPSWKEAEVQTWLQQIGFSKYCESFREQQVDGDLLLRLTEEELQTDLGMKSGITRKRFFRELTELKTFANYSTCDRSNLADWLGSLDPRFRQYTYGLVSCGLDRSLLHRVSEQQLLEDCGIHLGVHRARILTAAREMLHSPLPCTGGKPSGDTPDVFISYRRNSGSQLASLLKVHLQLHGFSVFIDVEKLEAGKFEDKLIQSVMGARNFVLVLSPGALDKCMQDHDCKDWVHKAIVTALSCGKNIVPIIDGFEWPEPQVLPEDMQAVLTFNGIKWSAEYQEATIEKIIRFLQGRSSRDSSAGSDTSLEGAAPMGPTATT
axon degeneration after 40 nM vincristine, wildtype DRG neurons: > 120 h

More lines, now with the values ahead:

axon degeneration (degeneration index) after axotomy of wildtype DRG neurons: 36 h
B1: SARM1-deltaTIR (enzyme, not shown: large carriers)
chain: MLAVPGPDGGGGTGPWWAAGGRGPREVSPGAGTEVQDALERALPELQQALSALKQAGGARAVGAGLAEVFQLVEEAWLLPAVGREVAQGLCDAIRLDGGLDLLLRLLQAPELETRVQAARLLEQILVAENRDRVARIGLGVILNLAKEREPVELARSVAGILEHMFKHSEETCQRLVAAGGLDAVLYWCRRTDPALLRHCALALGNCALHGGQAVQRRMVEKRAAEWLFPLAFSKEDELLRLHACLAVAVLATNKEVEREVERSGTLALVEPLVASLDPGRFARCLVDASDTSQGRGPDDLQRLVPLLDSNRLEAQCIGAFYLCAEAAIKSLQGKTKVFSDIGAIQSLKRLVSYSTNGTKSALAKRALRLLGEEVPRPILPSVPSWKEAEVQTWLQQIGFSKYCESFREQQVDGDLLLRLTEEELQTDLGMKSGITRKRFFRELTELKTFANYSTCDRSNLADWLGSLDPRFRQYTYGLVSCGLDRSLLHRVSEQQLLEDCGIHLGVHRARILTAAREMLHSPLPCTGGKPSGDATT

axon degeneration (degeneration index) after axotomy of wildtype DRG neurons: 36 h
B2: SARM1-K597E (enzyme, not shown: large carriers)
chain: LAVPGPDGGGGTGPWWAAGGRGPREVSPGAGTEVQDALERALPELQQALSALKQAGGARAVGAGLAEVFQLVEEAWLLPAVGREVAQGLCDAIRLDGGLDLLLRLLQAPELETRVQAARLLEQILVAENRDRVARIGLGVILNLAKEREPVELARSVAGILEHMFKHSEETCQRLVAAGGLDAVLYWCRRTDPALLRHCALALGNCALHGGQAVQRRMVEKRAAEWLFPLAFSKEDELLRLHACLAVAVLATNKEVEREVERSGTLALVEPLVASLDPGRFARCLVDASDTSQGRGPDDLQRLVPLLDSNRLEAQCIGAFYLCAEAAIKSLQGKTKVFSDIGAIQSLKRLVSYSTNGTKSALAKRALRLLGEEVPRPILPSVPSWKEAEVQTWLQQIGFSKYCESFREQQVDGDLLLRLTEEELQTDLGMKSGITRKRFFRELTELKTFANYSTCDRSNLADWLGSLDPRFRQYTYGLVSCGLDRSLLHRVSEQQLLEDCGIHLGVHRARILTAAREMLHSPLPCTGGKPSGDTPDVFISYRRNSGSQLASLLKVHLQLHGFSVFIDVEELEAGKFEDKLIQSVMGARNFVLVLSPGALDKCMQDHDCKDWVHKEIVTALSCGKNIVPIIDGFEWPEPQVLPEDMQAVLTFNGIKWSHEYQEATIEKIIRFLQGRSSRDSSAGSDTSLEGAAPMGPTATT

axon degeneration (degeneration index) and TMRM-positive mitochondria after axotomy of wildtype DRG neurons: > 96 h
axon degeneration after 40 nM vincristine, wildtype DRG neurons: > 120 h
axon degeneration and TMRM-positive mitochondria after 40 nM vincristine, wildtype DRG neurons: > 96 h
B3: SARM1-K193R/H194A/H685A (SARM1-compound dominant negative) (enzyme, not shown: large carriers)
chain: LAVPGPDGGGGTGPWWAAGGRGPREVSPGAGTEVQDALERALPELQQALSALKQAGGARAVGAGLAEVFQLVEEAWLLPAVGREVAQGLCDAIRLDGGLDLLLRLLQAPELETRVQAARLLEQILVAENRDRVARIGLGVILNLAKEREPVELARSVAGILEHMFRASEETCQRLVAAGGLDAVLYWCRRTDPALLRHCALALGNCALHGGQAVQRRMVEKRAAEWLFPLAFSKEDELLRLHACLAVAVLATNKEVEREVERSGTLALVEPLVASLDPGRFARCLVDASDTSQGRGPDDLQRLVPLLDSNRLEAQCIGAFYLCAEAAIKSLQGKTKVFSDIGAIQSLKRLVSYSTNGTKSALAKRALRLLGEEVPRPILPSVPSWKEAEVQTWLQQIGFSKYCESFREQQVDGDLLLRLTEEELQTDLGMKSGITRKRFFRELTELKTFANYSTCDRSNLADWLGSLDPRFRQYTYGLVSCGLDRSLLHRVSEQQLLEDCGIHLGVHRARILTAAREMLHSPLPCTGGKPSGDTPDVFISYRRNSGSQLASLLKVHLQLHGFSVFIDVEKLEAGKFEDKLIQSVMGARNFVLVLSPGALDKCMQDHDCKDWVHKEIVTALSCGKNIVPIIDGFEWPEPQVLPEDMQAVLTFNGIKWSAEYQEATIEKIIRFLQGRSSRDSSAGSDTSLEGAAPMGPTATT

axon degeneration after axotomy of wildtype DRG neurons: > 120 h
B7: SARM1-K193R/H685A (enzyme, not shown: large carriers)
chain: LAVPGPDGGGGTGPWWAAGGRGPREVSPGAGTEVQDALERALPELQQALSALKQAGGARAVGAGLAEVFQLVEEAWLLPAVGREVAQGLCDAIRLDGGLDLLLRLLQAPELETRVQAARLLEQILVAENRDRVARIGLGVILNLAKEREPVELARSVAGILEHMFRHSEETCQRLVAAGGLDAVLYWCRRTDPALLRHCALALGNCALHGGQAVQRRMVEKRAAEWLFPLAFSKEDELLRLHACLAVAVLATNKEVEREVERSGTLALVEPLVASLDPGRFARCLVDASDTSQGRGPDDLQRLVPLLDSNRLEAQCIGAFYLCAEAAIKSLQGKTKVFSDIGAIQSLKRLVSYSTNGTKSALAKRALRLLGEEVPRPILPSVPSWKEAEVQTWLQQIGFSKYCESFREQQVDGDLLLRLTEEELQTDLGMKSGITRKRFFRELTELKTFANYSTCDRSNLADWLGSLDPRFRQYTYGLVSCGLDRSLLHRVSEQQLLEDCGIHLGVHRARILTAAREMLHSPLPCTGGKPSGDTPDVFISYRRNSGSQLASLLKVHLQLHGFSVFIDVEKLEAGKFEDKLIQSVMGARNFVLVLSPGALDKCMQDHDCKDWVHKEIVTALSCGKNIVPIIDGFEWPEPQVLPEDMQAVLTFNGIKWSAEYQEATIEKIIRFLQGRSSRDSSAGSDTSLEGAAPMGPTATT
